Measured values from the supplement of paper PMC6757056.
± gives the standard deviation of the averaged measurements.

B1: library; a variant is named by its letters at N, in order (parent)
chain: GCUGUCACCGGUGUAUUACCCUAGUGGUCGACCGGUCUGAUGAGUCUNNNNNNAGACGAAACAGC

Tests used:
hypoxanthine [1] = variants of: B1; assay: normalized RNA/DNA level with ligand (relative to sTRSVctl = 100) (log10 (% of sTRSVctl)); ligand: hypoxanthine (xanthine aptamer); higher = less ribozyme self-cleavage, higher mRNA level; details: ligand concentration (+) RNA-Seq: 5 mM, HEK293T, reporter: mCherry (pCS4076), ligand present: yes
Procedure, shortened: (§1)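 RNA level was computed as RNA reads over DNA reads divided by a spiked-in non-cleaving sequence or by the top sequences, then scaled and log-transformed. Scaling was ×100 with log10, the top group was 25 sequences, and the threshold was ≥100 DNA reads. The reads came from HEK293T cells transfected at 4 µg per 6-well well with ribozyme switch library plasmids (mCherry, or eGFP in some ligand experiments). Total RNA was extracted with EDTA 72 h after transfection, with any ligand added 1 h before it.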

hypoxanthine [2] = variants of: B1; assay: normalized RNA/DNA level without ligand (relative to sTRSVctl = 100) (log10 (% of sTRSVctl)); ligand: hypoxanthine (xanthine aptamer); higher = less ribozyme self-cleavage, higher mRNA level; details: HEK293T, reporter: mCherry (pCS4076), ligand present: no
Procedure, shortened: as §1

| Variant | normalized RNA/DNA level with ligand (log10) (hypoxanthine [1]) | normalized RNA/DNA level without ligand (log10) (hypoxanthine [2]) |
| --- | --- | --- |
| GCUGUCACCGGUGUAUUACCCUAGUGGUCGACCGGUCUGAUGAGUCUAGACACAGACGAAACAGC [AGACAC] | 1.92 ± 0.025 | 1.76 ± 0.033 |
| GCUGUCACCGGUGUAUUACCCUAGUGGUCGACCGGUCUGAUGAGUCUAGACCUAGACGAAACAGC [AGACCU] | 1.92 ± 0.023 | 1.88 ± 0.044 |
| GCUGUCACCGGUGUAUUACCCUAGUGGUCGACCGGUCUGAUGAGUCUAGACCGAGACGAAACAGC [AGACCG] | 1.925 ± 0.004 | 1.75 ± 0.067 |
| GCUGUCACCGGUGUAUUACCCUAGUGGUCGACCGGUCUGAUGAGUCUAGACCAAGACGAAACAGC [AGACCA] | 1.93 ± 0.046 | 1.85 ± 0.015 |
| GCUGUCACCGGUGUAUUACCCUAGUGGUCGACCGGUCUGAUGAGUCUUGACGCAGACGAAACAGC [UGACGC] | 1.96 ± 0.045 | 1.83 ± 0.038 |
| GCUGUCACCGGUGUAUUACCCUAGUGGUCGACCGGUCUGAUGAGUCUGGACUCAGACGAAACAGC [GGACUC] | 1.9331 ± 0.00093 | 1.92 ± 0.085 |
| GCUGUCACCGGUGUAUUACCCUAGUGGUCGACCGGUCUGAUGAGUCUGGACUAAGACGAAACAGC [GGACUA] | 1.91 ± 0.09 | 1.84 ± 0.023 |
| GCUGUCACCGGUGUAUUACCCUAGUGGUCGACCGGUCUGAUGAGUCUGGACCCAGACGAAACAGC [GGACCC] | 1.96 ± 0.065 | 1.93 ± 0.023 |
| GCUGUCACCGGUGUAUUACCCUAGUGGUCGACCGGUCUGAUGAGUCUGGACCUAGACGAAACAGC [GGACCU] | 1.98 ± 0.056 | 1.9838 ± 0.0012 |
| GCUGUCACCGGUGUAUUACCCUAGUGGUCGACCGGUCUGAUGAGUCUGGACCAAGACGAAACAGC [GGACCA] | 1.916 ± 0.0027 | 1.881 ± 0.0056 |
| GCUGUCACCGGUGUAUUACCCUAGUGGUCGACCGGUCUGAUGAGUCUAGAAUUAGACGAAACAGC [AGAAUU] | 1.926 ± 0.017 | 1.86 ± 0.025 |
| GCUGUCACCGGUGUAUUACCCUAGUGGUCGACCGGUCUGAUGAGUCUAGAAUCAGACGAAACAGC [AGAAUC] | 1.94 ± 0.086 | 1.91 ± 0.048 |
| GCUGUCACCGGUGUAUUACCCUAGUGGUCGACCGGUCUGAUGAGUCUAGACUAAGACGAAACAGC [AGACUA] | 1.95 ± 0.056 | 1.762 ± 0.0092 |
| GCUGUCACCGGUGUAUUACCCUAGUGGUCGACCGGUCUGAUGAGUCUCGAAUUAGACGAAACAGC [CGAAUU] | 1.95 ± 0.046 | 1.807 ± 0.00086 |
| GCUGUCACCGGUGUAUUACCCUAGUGGUCGACCGGUCUGAUGAGUCUCGAAUGAGACGAAACAGC [CGAAUG] | 1.913 ± 0.003 | 1.883 ± 0.008 |
| GCUGUCACCGGUGUAUUACCCUAGUGGUCGACCGGUCUGAUGAGUCUGGAAUCAGACGAAACAGC [GGAAUC] | 1.9 ± 0.035 | 1.81 ± 0.057 |
| GCUGUCACCGGUGUAUUACCCUAGUGGUCGACCGGUCUGAUGAGUCUGGACGCAGACGAAACAGC [GGACGC] | 1.86 ± 0.044 | 1.49 ± 0.12 |
| GCUGUCACCGGUGUAUUACCCUAGUGGUCGACCGGUCUGAUGAGUCUGGACGUAGACGAAACAGC [GGACGU] | 1.887 ± 0.013 | 1.814 ± 0.0056 |
| GCUGUCACCGGUGUAUUACCCUAGUGGUCGACCGGUCUGAUGAGUCUGGACAUAGACGAAACAGC [GGACAU] | 1.886 ± 0.0069 | 1.8 ± 0.038 |
| GCUGUCACCGGUGUAUUACCCUAGUGGUCGACCGGUCUGAUGAGUCUGGACAGAGACGAAACAGC [GGACAG] | 1.85 ± 0.055 | 1.468 ± 0.0059 |
| GCUGUCACCGGUGUAUUACCCUAGUGGUCGACCGGUCUGAUGAGUCUCGACGAAGACGAAACAGC [CGACGA] | 1.93 ± 0.064 | 1.803 ± 0.0041 |

| Variant | normalized RNA/DNA level with ligand (log10) (hypoxanthine [1]) | normalized RNA/DNA level without ligand (log10) (hypoxanthine [2]) |
| --- | --- | --- |
| GCUGUCACCGGUGUAUUACCCUAGUGGUCGACCGGUCUGAUGAGUCUCGACGUAGACGAAACAGC [CGACGU] | 1.956 ± 0.0063 | 1.86 ± 0.075 |
| GCUGUCACCGGUGUAUUACCCUAGUGGUCGACCGGUCUGAUGAGUCUUGACAAAGACGAAACAGC [UGACAA] | 1.918 ± 0.012 | 1.74 ± 0.078 |
| GCUGUCACCGGUGUAUUACCCUAGUGGUCGACCGGUCUGAUGAGUCUUGACAUAGACGAAACAGC [UGACAU] | 1.937 ± 0.0061 | 1.81 ± 0.033 |
| GCUGUCACCGGUGUAUUACCCUAGUGGUCGACCGGUCUGAUGAGUCUCGACUAAGACGAAACAGC [CGACUA] | 1.95 ± 0.079 | 1.698 ± 0.0058 |
| GCUGUCACCGGUGUAUUACCCUAGUGGUCGACCGGUCUGAUGAGUCUCGACUGAGACGAAACAGC [CGACUG] | 1.94 ± 0.023 | 1.828 ± 0.012 |
| GCUGUCACCGGUGUAUUACCCUAGUGGUCGACCGGUCUGAUGAGUCUCGACUCAGACGAAACAGC [CGACUC] | 2.06 ± 0.027 | 2.006 ± 0.0054 |
| GCUGUCACCGGUGUAUUACCCUAGUGGUCGACCGGUCUGAUGAGUCUCGACCCAGACGAAACAGC [CGACCC] | 2.03 ± 0.046 | 1.98 ± 0.086 |
| GCUGUCACCGGUGUAUUACCCUAGUGGUCGACCGGUCUGAUGAGUCUCGACCGAGACGAAACAGC [CGACCG] | 1.905 ± 0.0089 | 1.92 ± 0.023 |
| GCUGUCACCGGUGUAUUACCCUAGUGGUCGACCGGUCUGAUGAGUCUCGACCUAGACGAAACAGC [CGACCU] | 1.98 ± 0.032 | 1.92 ± 0.056 |
| GCUGUCACCGGUGUAUUACCCUAGUGGUCGACCGGUCUGAUGAGUCUCGACCAAGACGAAACAGC [CGACCA] | 1.99 ± 0.045 | 1.85 ± 0.053 |
| GCUGUCACCGGUGUAUUACCCUAGUGGUCGACCGGUCUGAUGAGUCUAGACGCAGACGAAACAGC [AGACGC] | 1.923 ± 0.0088 | 1.69 ± 0.044 |
| GCUGUCACCGGUGUAUUACCCUAGUGGUCGACCGGUCUGAUGAGUCUUGAAUCAGACGAAACAGC [UGAAUC] | 1.943 ± 0.013 | 1.96 ± 0.022 |
| GCUGUCACCGGUGUAUUACCCUAGUGGUCGACCGGUCUGAUGAGUCUUGAAUGAGACGAAACAGC [UGAAUG] | 1.9 ± 0.0011 | 1.75 ± 0.061 |
| GCUGUCACCGGUGUAUUACCCUAGUGGUCGACCGGUCUGAUGAGUCUUGAAUUAGACGAAACAGC [UGAAUU] | 1.93 ± 0.021 | 1.897 ± 0.014 |
| GCUGUCACCGGUGUAUUACCCUAGUGGUCGACCGGUCUGAUGAGUCUUGACCCAGACGAAACAGC [UGACCC] | 2.002 ± 0.0071 | 1.94 ± 0.024 |
| GCUGUCACCGGUGUAUUACCCUAGUGGUCGACCGGUCUGAUGAGUCUUGACCUAGACGAAACAGC [UGACCU] | 2.004 ± 0.012 | 1.92 ± 0.021 |
| GCUGUCACCGGUGUAUUACCCUAGUGGUCGACCGGUCUGAUGAGUCUUGACCAAGACGAAACAGC [UGACCA] | 1.93 ± 0.058 | 1.886 ± 0.0032 |
| GCUGUCACCGGUGUAUUACCCUAGUGGUCGACCGGUCUGAUGAGUCUUGACCGAGACGAAACAGC [UGACCG] | 1.96 ± 0.094 | 1.79 ± 0.046 |
| GCUGUCACCGGUGUAUUACCCUAGUGGUCGACCGGUCUGAUGAGUCUCGACAAAGACGAAACAGC [CGACAA] | 1.89 ± 0.061 | 1.64 ± 0.012 |
| GCUGUCACCGGUGUAUUACCCUAGUGGUCGACCGGUCUGAUGAGUCUCGACAUAGACGAAACAGC [CGACAU] | 1.887 ± 0.012 | 1.74 ± 0.021 |
| GCUGUCACCGGUGUAUUACCCUAGUGGUCGACCGGUCUGAUGAGUCUCGACAGAGACGAAACAGC [CGACAG] | 1.93 ± 0.037 | 1.68 ± 0.053 |
